Source: US20230399385A1

Biological target: SARS-CoV-2 spike (S) glycoprotein, wild-type, on pseudotyped virus (SARS-CoV-2) (UniProt P0DTC2)
Assay: cell-based or functional assay

JS016 (antibody), sequence (VH): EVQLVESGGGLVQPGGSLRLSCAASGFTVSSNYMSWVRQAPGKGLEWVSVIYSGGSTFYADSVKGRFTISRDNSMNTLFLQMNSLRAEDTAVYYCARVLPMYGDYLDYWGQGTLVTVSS
JS016 (antibody), sequence (VL): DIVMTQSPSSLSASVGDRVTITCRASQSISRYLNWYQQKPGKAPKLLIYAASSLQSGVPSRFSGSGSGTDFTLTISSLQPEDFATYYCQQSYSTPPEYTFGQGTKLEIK

For JS016 (antibody), the IC50, pseudovirus neutralization study against wild-type SARS-CoV-2 was 0.0631 µg/mL.
